Reference: US7947462 (dated 2011)

Experiments:
DKK2-AP [1] = experiment: Scatchard analysis, cell binding (transfected 293T); panel e, Kd1 (high-affinity site)
DKK2-AP [2] = experiment: Scatchard analysis, cell binding (transfected 293T); panel e, Kd2 (low-affinity site)
DKK1-AP [3] = experiment: Scatchard analysis, cell binding (transfected 293T); panel d, Kd2 (low-affinity site)
DKK1-AP [4] = experiment: Scatchard analysis, cell binding (transfected 293T); panel d, Kd1 (high-affinity site)
DKK1-AP [5] = experiment: Scatchard analysis, cell binding (transfected 293T); panel b
DKK2-AP [6] = experiment: as above

B1: mkrm2 (receptor)
chain: GSLHSPGLSECFQVNGADYRGHQNYTGPRGAGRPCLFWDQTQQHSYSSASDPQGRWGLGAHNFCRNPDGDVQPWCYVAETEEGIYWRYCDIPTCHMPGYLGCFVDSGAPPALSGPSGTSTKLTVQVCLRFCRMKGYQLAGVEAGYACFCGSESDLARGRPAPATDCDQICFGHPGQLCGGDGRLGIYEVSVGSCQGNWSAPQGVIYSPDFPDEYGPDRNCSWVLGQLGAVLELTFRLFELADSRDRLELRDVSSGNLLRAFDGAHPPPPGPLRLRTAALLLTFRSDARGHAQGFALTYRGLQDTVEGRASPEDSTESLAGDPDGANASCSPKPGAAQASIGARVFSTVTAFSVLLLLLLSLLRLLRRRSCLLAPGKGSLAMGPSRGPGRSWAVWYRRPRGVALPCPPGDSQAEGPAAGYRPLSASSQSSLRSLVSAL
Kd (DKK2-AP [1]): 360 pM | Kd (DKK2-AP [2]): 3000 pM | Kd (DKK1-AP [3]): 2600 pM | Kd (DKK1-AP [4]): 300 pM

B2: mkrm1 (receptor)
chain: ARPAPGPRSGPECFTANGADYRGTQSWTALQGGKPCLFWNETFQHPYNTLKYPNGEGGLGEHNYCRNPDGDVSPWCYVAEHEDGVYWKYCEIPACQMPGNLGCYKDHGNPPPLTGTSKTSNKLTIQTCISFCRSQRFKFAGMESGYACFCGNNPDYWKHGEAASTECNSVCFGDHTQPCGGDGRIILFDTLVGACGGNYSAMAAVVYSPDFPDTYATGRVCYWTIRVPGASRIHFNFTLFDIRDSADMVELLDGYTHRVLVRLSGRSRPPLSFNVSLDFVILYFFSDRINQAQGFAVLYQATKEEPPQERPAVNQTLAEVITEQANLSVSAAHSSKVLYVITPSPSHPPQTAPGSHSWAPSVGANSHRVEGWTVYGLATLLILTVTAVVAKILLHVTFKSHRVPASGDLRDCRQPGASGDIWTIFYEPSTTISIFKKKLKGQSQQDDRNPLVSD
Kd (DKK1-AP [5]): 280 pM | Kd (DKK2-AP [6]): 350 pM
